Assay results as given in patent US20260250322A1, “NEW PEPTIDES AS SELECTIVE IL-23 RECEPTOR INHIBITORS” (SANOFI, priority 2023, published 2026).
Numbered stars: 1 amine (or outer) side, 2 acyl side, 3 side chain; on linkers, the order of the positions; unused ones are H or OH. Bridge positions count the residues as written; N and C are the ends. Square brackets hold non-standard residues; d marks the D form. Primed or numbered codes have the meaning given here. Tyr(Me) = Yme = 4-methoxy-L-phenylalanine (O-methyl-tyrosine), COc1ccc(C[C@H](N[*:1])C(=O)[*:2])cc1; Tyr(Me)″ = O-methyl-tyrosine (4-methoxy-phenylalanine), COc1ccc(C[C@H](N[*:1])C(=O)[*:2])cc1; 1Nal = N[C@@H](Cc1cccc2ccccc12)C(=O)O; 2Nal = N[C@@H](Cc1ccc2ccccc2c1)C(=O)O; AEF = NCCOc1ccc(C[C@H](N)C(=O)O)cc1; Cit = NC(=O)NCCC[C@H](N)C(=O)O; Orn = NCCC[C@H](N)C(=O)O; Aib = CC(C)(N)C(=O)O

T1: IL-23 receptor on the surface of HEK-Blue IL-23 cells (UniProt Q5VWK5 24-629, limits assumed)
T1 sequence (looked up): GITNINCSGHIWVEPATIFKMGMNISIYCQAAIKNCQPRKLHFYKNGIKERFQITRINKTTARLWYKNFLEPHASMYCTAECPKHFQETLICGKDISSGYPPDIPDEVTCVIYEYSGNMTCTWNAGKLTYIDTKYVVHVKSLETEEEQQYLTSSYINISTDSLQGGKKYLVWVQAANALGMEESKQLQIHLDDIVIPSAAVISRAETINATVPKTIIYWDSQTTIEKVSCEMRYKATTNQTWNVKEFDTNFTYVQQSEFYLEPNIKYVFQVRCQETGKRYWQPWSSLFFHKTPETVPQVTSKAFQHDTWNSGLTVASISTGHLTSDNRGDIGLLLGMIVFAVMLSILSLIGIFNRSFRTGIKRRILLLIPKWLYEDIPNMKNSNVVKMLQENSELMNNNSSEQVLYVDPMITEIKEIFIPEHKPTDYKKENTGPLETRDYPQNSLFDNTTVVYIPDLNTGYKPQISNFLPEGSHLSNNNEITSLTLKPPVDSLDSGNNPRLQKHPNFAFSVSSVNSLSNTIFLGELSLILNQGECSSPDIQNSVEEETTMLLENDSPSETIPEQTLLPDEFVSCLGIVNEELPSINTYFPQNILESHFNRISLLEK

T2: recombinant human IL-23R-Fc chimera (human, UniProt Q5VWK5 24-353, limits assumed)
T2 construct: Recombinant reagent; also called interleukin-23 receptor; not shown: detected with goat anti-hu-IgG1-HRP antibody
T2 sequence (looked up): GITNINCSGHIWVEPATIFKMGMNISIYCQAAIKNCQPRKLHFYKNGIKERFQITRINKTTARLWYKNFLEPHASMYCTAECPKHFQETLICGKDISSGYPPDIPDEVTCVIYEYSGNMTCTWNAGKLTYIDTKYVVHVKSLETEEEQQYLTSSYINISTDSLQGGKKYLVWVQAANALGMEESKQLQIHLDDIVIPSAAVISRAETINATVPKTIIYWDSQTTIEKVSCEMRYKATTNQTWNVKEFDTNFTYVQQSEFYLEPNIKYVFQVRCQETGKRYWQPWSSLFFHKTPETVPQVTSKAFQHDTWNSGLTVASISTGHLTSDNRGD


Assays:
[1] = molecular target: T1, IL-23 receptor on the surface of …; experiment: cell-based or functional assay
[2] = molecular target: T2, recombinant human IL-23R-Fc chimera; experiment: competition ELISA: coated human IL-23, IL-23R-Fc 0.1 ug/ml, peptide titrated
Method: Antagonism of peptide compounds for human interleukin-23 receptor inhibitors, was determined by an ELISA assay.
A 384-well plate was coated with 50 μl/well of human IL-23 at a final concentration of 1 μg/ml and incubated overnight at 4° C. The wells were washed 3 times with 80 μl wash buffer and blocked with 80 μl blocking buffer for 60 minutes at room temperature and washed again. 20 μl of serially diluted test peptides was added to each well and subsequently 20 μl of recombinant human IL-23R-Fc chimera at final concentration of 0.1 μg/ml. The plate was incubated for 60 minutes at room temperature. After the wells were washed, bound IL-23R-Fc was detected with goat anti-hu-lgG1-HRP antibody. Signals were visualized with QuantaBlu Fluorogenic Peroxidase Substrate.

| Binder | Inhibition of IL-23 induced pSTAT3 (IC50 nM) [1] [nM] | IC50 [2] [nM] |
| --- | --- | --- |
| Ac-[Orn]NTWQR[AEF][2Nal][Aib]ENN-NH2 (lactam 1-10; SMILES CC(=O)N[C@H]1CCCNC(=O)CC[C@@H](C(=O)N[C@@H](CC(N)=O)C(=O)N[C@@H](CC(N)=O)C(N)=O)NC(=O)C(C)(C)NC(=O)[C@H](Cc2ccc3ccccc3c2)NC(=O)[C@H](Cc2ccc(OCCN)cc2)NC(=O)[C@H](CCCNC(=N)N)NC(=O)[C@H](CCC(N)=O)NC(=O)[C@H](Cc2c[nH]c3ccccc23)NC(=O)[C@H]([C@@H](C)O)NC(=O)[C@H](CC(N)=O)NC1=O) [peptide compound SEQ ID NO: 38] | 1570 | 12.5 |
| Ac-[dK]NTWQR[Tyr(Me)][2Nal][Aib]DN-NH2 (lactam 1-10; SMILES COc1ccc(C[C@@H]2NC(=O)[C@H](CCCNC(=N)N)NC(=O)[C@H](CCC(N)=O)NC(=O)[C@H](Cc3c[nH]c4ccccc34)NC(=O)[C@H]([C@@H](C)O)NC(=O)[C@H](CC(N)=O)NC(=O)[C@H](NC(C)=O)CCCCNC(=O)C[C@@H](C(=O)N[C@@H](CC(N)=O)C(N)=O)NC(=O)C(C)(C)NC(=O)[C@H](Cc3ccc4ccccc4c3)NC2=O)cc1) [peptide compound SEQ ID NO: 26] | 8110 | 18.8 |
| Ac-[dK]NTWQR[Tyr(Me)″][1Nal]K(Ac)DNN-NH2 (lactam 1-10; SMILES COc1ccc(C[C@@H]2NC(=O)[C@H](CCCNC(=N)N)NC(=O)[C@H](CCC(N)=O)NC(=O)[C@H](Cc3c[nH]c4ccccc34)NC(=O)[C@H]([C@@H](C)O)NC(=O)[C@H](CC(N)=O)NC(=O)[C@H](NC(C)=O)CCCCNC(=O)C[C@@H](C(=O)N[C@@H](CC(N)=O)C(=O)N[C@@H](CC(N)=O)C(N)=O)NC(=O)[C@H](CCCCNC(C)=O)NC(=O)[C@H](Cc3cccc4ccccc34)NC2=O)cc1, synthetic macrolactam) [peptide compound SEQ ID NO: 17] | 5650 | 7.87 |
| Ac-[dK]NTWQR[Tyr(Me)″][2Nal]QDNN-NH2 (lactam 1-10; SMILES COc1ccc(C[C@@H]2NC(=O)[C@H](CCCNC(=N)N)NC(=O)[C@H](CCC(N)=O)NC(=O)[C@H](Cc3c[nH]c4ccccc34)NC(=O)[C@H]([C@@H](C)O)NC(=O)[C@H](CC(N)=O)NC(=O)[C@H](NC(C)=O)CCCCNC(=O)C[C@@H](C(=O)N[C@@H](CC(N)=O)C(=O)N[C@@H](CC(N)=O)C(N)=O)NC(=O)[C@H](CCC(N)=O)NC(=O)[C@H](Cc3ccc4ccccc4c3)NC2=O)cc1, synthetic macrolactam) [peptide compound SEQ ID NO: 30] | 6050 | 9.64 |
| Ac-[dK]NTWQR[Tyr(Me)″][1Nal]QDNN-NH2 (lactam 1-10; SMILES COc1ccc(C[C@@H]2NC(=O)[C@H](CCCNC(=N)N)NC(=O)[C@H](CCC(N)=O)NC(=O)[C@H](Cc3c[nH]c4ccccc34)NC(=O)[C@H]([C@@H](C)O)NC(=O)[C@H](CC(N)=O)NC(=O)[C@H](NC(C)=O)CCCCNC(=O)C[C@@H](C(=O)N[C@@H](CC(N)=O)C(=O)N[C@@H](CC(N)=O)C(N)=O)NC(=O)[C@H](CCC(N)=O)NC(=O)[C@H](Cc3cccc4ccccc34)NC2=O)cc1, synthetic macrolactam) [peptide compound SEQ ID NO: 19] | 9600 | 15.6 |
| Ac-[dK]NTWQR[Tyr(Me)][1Nal][Cit]DNN-NH2 (lactam 1-10; SMILES COc1ccc(C[C@@H]2NC(=O)[C@H](CCCNC(=N)N)NC(=O)[C@H](CCC(N)=O)NC(=O)[C@H](Cc3c[nH]c4ccccc34)NC(=O)[C@H]([C@@H](C)O)NC(=O)[C@H](CC(N)=O)NC(=O)[C@H](NC(C)=O)CCCCNC(=O)C[C@@H](C(=O)N[C@@H](CC(N)=O)C(=O)N[C@@H](CC(N)=O)C(N)=O)NC(=O)[C@H](CCCNC(N)=O)NC(=O)[C@H](Cc3cccc4ccccc34)NC2=O)cc1) [peptide compound SEQ ID NO: 18] | 10000 | 11.8 |

Continued by falling IC50 [2], values first:

| Inhibition of IL-23 induced pSTAT3 (IC50 nM) [1] [nM] | IC50 [2] [nM] | Binder |
| --- | --- | --- |
| 2210 | 9.03 | Ac-[dK]NTWQR[Tyr(Me)″][2Nal]K(Ac)DNN-NH2 (lactam 1-10; SMILES COc1ccc(C[C@@H]2NC(=O)[C@H](CCCNC(=N)N)NC(=O)[C@H](CCC(N)=O)NC(=O)[C@H](Cc3c[nH]c4ccccc34)NC(=O)[C@H]([C@@H](C)O)NC(=O)[C@H](CC(N)=O)NC(=O)[C@H](NC(C)=O)CCCCNC(=O)C[C@@H](C(=O)N[C@@H](CC(N)=O)C(=O)N[C@@H](CC(N)=O)C(N)=O)NC(=O)[C@H](CCCCNC(C)=O)NC(=O)[C@H](Cc3ccc4ccccc4c3)NC2=O)cc1, synthetic macrolactam) [peptide compound SEQ ID NO: 28] |
| 1380 | 5.42 | Ac-[dK]NTWQRY[1Nal][Aib]DNN-NH2 (lactam 1-10; SMILES CC(=O)N[C@@H]1CCCCNC(=O)C[C@@H](C(=O)N[C@@H](CC(N)=O)C(=O)N[C@@H](CC(N)=O)C(N)=O)NC(=O)C(C)(C)NC(=O)[C@H](Cc2cccc3ccccc23)NC(=O)[C@H](Cc2ccc(O)cc2)NC(=O)[C@H](CCCNC(=N)N)NC(=O)[C@H](CCC(N)=O)NC(=O)[C@H](Cc2c[nH]c3ccccc23)NC(=O)[C@H]([C@@H](C)O)NC(=O)[C@H](CC(N)=O)NC1=O, synthetic macrolactam) [peptide compound SEQ ID NO: 14] |
| 1610 | 3.55 | Ac-KNTWQR[Tyr(Me)″][1Nal][Aib]DNN-NH2 (lactam 1-10; SMILES COc1ccc(C[C@@H]2NC(=O)[C@H](CCCNC(=N)N)NC(=O)[C@H](CCC(N)=O)NC(=O)[C@H](Cc3c[nH]c4ccccc34)NC(=O)[C@H]([C@@H](C)O)NC(=O)[C@H](CC(N)=O)NC(=O)[C@@H](NC(C)=O)CCCCNC(=O)C[C@@H](C(=O)N[C@@H](CC(N)=O)C(=O)N[C@@H](CC(N)=O)C(N)=O)NC(=O)C(C)(C)NC(=O)[C@H](Cc3cccc4ccccc34)NC2=O)cc1, synthetic macrolactam) [peptide compound SEQ ID NO: 9] |
| 339 | 1.59 | Ac-[dK]NTWQRY[2Nal][Aib]DNN-NH2 (lactam 1-10, synthetic macrolactam) [peptide compound SEQ ID NO: 4] |
